Data reported in publication PMC2834417.
Values joined by “and” are separate entries in the source; they are usually repeats but may differ in a detail not shown here. Equal values may be shown once.

Molecular target: Wild type Cav1.2 channel with EGFP fused to its C-terminus (rabbit) (UniProt P15381)
Experiment: FRET or BRET

Chain of UniProt P15381 (P15381 whole entry, the tested form may be a part): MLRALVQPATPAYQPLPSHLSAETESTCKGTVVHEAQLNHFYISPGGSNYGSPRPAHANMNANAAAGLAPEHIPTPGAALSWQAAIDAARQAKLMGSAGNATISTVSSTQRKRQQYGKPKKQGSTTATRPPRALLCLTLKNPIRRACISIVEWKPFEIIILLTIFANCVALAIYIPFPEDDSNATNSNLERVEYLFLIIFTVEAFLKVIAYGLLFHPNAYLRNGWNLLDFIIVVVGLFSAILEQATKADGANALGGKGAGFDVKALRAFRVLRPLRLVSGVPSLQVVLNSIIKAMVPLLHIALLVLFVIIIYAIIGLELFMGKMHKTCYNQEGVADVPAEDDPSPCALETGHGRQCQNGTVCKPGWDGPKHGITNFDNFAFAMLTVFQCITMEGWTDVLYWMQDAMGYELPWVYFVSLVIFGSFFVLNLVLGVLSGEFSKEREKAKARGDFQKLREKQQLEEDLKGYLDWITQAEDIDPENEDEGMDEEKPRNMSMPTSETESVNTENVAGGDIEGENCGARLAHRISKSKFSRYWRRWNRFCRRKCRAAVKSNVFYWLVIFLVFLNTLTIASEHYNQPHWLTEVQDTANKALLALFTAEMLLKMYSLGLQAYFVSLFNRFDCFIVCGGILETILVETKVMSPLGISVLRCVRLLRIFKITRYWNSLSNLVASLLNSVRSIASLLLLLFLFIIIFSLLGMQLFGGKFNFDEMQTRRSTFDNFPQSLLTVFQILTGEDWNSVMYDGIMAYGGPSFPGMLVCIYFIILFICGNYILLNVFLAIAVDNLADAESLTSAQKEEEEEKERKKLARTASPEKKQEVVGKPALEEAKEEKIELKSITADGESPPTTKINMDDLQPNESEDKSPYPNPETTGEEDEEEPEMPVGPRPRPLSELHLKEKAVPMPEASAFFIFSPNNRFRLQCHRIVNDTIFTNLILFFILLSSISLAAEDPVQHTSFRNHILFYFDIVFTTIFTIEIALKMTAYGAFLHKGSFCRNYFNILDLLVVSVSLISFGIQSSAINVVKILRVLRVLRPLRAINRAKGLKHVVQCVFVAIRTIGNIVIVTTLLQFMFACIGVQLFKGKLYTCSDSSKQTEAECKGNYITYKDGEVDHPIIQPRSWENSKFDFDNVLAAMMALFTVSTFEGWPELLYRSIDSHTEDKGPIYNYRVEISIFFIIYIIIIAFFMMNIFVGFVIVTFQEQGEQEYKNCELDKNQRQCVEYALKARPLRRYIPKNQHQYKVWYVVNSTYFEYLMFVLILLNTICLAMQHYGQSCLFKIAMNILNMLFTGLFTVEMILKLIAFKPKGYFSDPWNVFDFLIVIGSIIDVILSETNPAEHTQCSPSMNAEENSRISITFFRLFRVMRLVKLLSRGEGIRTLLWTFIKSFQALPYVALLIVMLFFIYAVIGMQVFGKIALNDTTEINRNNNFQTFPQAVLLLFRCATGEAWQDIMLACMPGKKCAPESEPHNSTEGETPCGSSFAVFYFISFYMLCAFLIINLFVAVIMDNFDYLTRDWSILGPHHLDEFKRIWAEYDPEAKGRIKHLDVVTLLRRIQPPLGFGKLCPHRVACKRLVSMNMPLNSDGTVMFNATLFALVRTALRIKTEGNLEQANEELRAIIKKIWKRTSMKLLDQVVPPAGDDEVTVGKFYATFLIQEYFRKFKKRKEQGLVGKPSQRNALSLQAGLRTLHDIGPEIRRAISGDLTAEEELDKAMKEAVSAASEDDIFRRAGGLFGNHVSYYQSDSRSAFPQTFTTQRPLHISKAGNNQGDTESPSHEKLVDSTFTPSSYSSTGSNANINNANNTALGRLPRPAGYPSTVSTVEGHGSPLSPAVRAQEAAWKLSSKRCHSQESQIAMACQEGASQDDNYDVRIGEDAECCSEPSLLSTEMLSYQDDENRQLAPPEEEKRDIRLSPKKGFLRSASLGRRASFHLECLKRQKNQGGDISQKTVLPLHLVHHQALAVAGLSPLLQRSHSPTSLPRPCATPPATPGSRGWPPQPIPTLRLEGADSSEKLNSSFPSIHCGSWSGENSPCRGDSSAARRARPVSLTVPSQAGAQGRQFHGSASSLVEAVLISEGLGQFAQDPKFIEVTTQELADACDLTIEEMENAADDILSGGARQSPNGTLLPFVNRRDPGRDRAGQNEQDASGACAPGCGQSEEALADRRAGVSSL

With “Calmodulin fused with tag-RFP (from UniProt P0DP23 1-149) (natural protein)” the FRET was 0.32 and 0.21 and 0.33.
